Measured values as given in US20160369008A1 (Astellas, published 2016).

Assays:
[1] = molecular target: T1, human PAI-1 in complex with tPA (human, UniProt P05121 24-402; P00750 36-562); assay: ELISA, tPA-PAI-1 complex on the plate
T1 construct: tPA was coated on the plate and active PAI-1 was captured on it; also called tPA-PAI-1 complex; Human tPA-PAI-1

latent human PAI-1 = molecular target: T2, latent human PAI-1 (human, UniProt P05121 24-402); assay: ELISA, latent human PAI-1 on the plate
T2 construct: Same protein as active PAI-1 but in the latent conformation; also called recombinant latent human PAI-1; latent PAI-1

[2] = molecular target: T3, human PAI-1 in complex with uPA (human, UniProt P05121 24-402; P00749 21-431, limits assumed); assay: ELISA, uPA-PAI-1 complex on the plate
T3 construct: uPA was coated on the plate and active PAI-1 was captured on it; also called uPA-PAI-1 complex; Human uPA-PAI-1

[3] = molecular target: T4, active human PAI-1 in complex with vitronectin (human, UniProt P05121 24-402; P04004 20-478); assay: ELISA, VTN-PAI-1 complex on the plate; 100% set to the signal of MA56-A7C10 at its maximum concentration
T4 construct: Vitronectin was coated on the plate and active PAI-1 was captured on it; also called VTN-PAI-1 complex; VTN-PAI-1

[4] = molecular target: T5, active PAI-1 in human plasma (human, UniProt P05121 24-402); assay: ELISA: inhibition of the capture of active PAI-1 of human plasma on immobilised uPA (Example 9)
T5 construct: Native protein in diluted plasma; also called human plasma-derived active PAI-1; active human PAI-1 in the plasma
Method: (§1) The evaluation of an inhibitory activity on active PAI-1 in human plasma was carried out according to the method of Example 5. The evaluation of an inhibitory activity on active PAI-1 in monkey plasma was carried out using monkey plasma instead of human plasma in the method described in Example 5. With regard to the monkey plasma, the plasma was diluted using 0.1% BSA-containing PBS, such that the monkey plasma was diluted 120-fold when a plasma-antibody mixture was prepared. For both of two evaluation systems, the final concentration of each antibody was used in a range from 300 ng/mL to 0.3 ng/mL (7-step dilution). As a calibration curve sample, recombinant active human PAI-1 (Molecular Innovations Inc., PAI-A) was used which had been diluted in 7 steps in a range from 3000 pg/mL to 3 pg/mL with 0.1% BSA-containing PBS.
(§2) The concentration of each active PAI-1 was calculated using a calibration curve. The test was carried out in duplicate for each antibody, and the average value was calculated. […] Each of the calculated active PAI-1 inhibitory rates was analyzed to calculate IC50 values of the antibodies by four-parameter logistic curve regression.

[5] = molecular target: T5, active PAI-1 in human plasma; assay: ELISA: inhibition of the capture of active PAI-1 of human plasma on immobilised uPA
Method: After the blocking agent in the assay plate was removed by reverse centrifugation, the pre-incubated plasma-antibody mixtures, the calibration curve sample, and the control sample were added at 100 μL/well to the assay plate which was then allowed to stand at room temperature for 30 minutes. The plate was washed three times with a washing solution (0.05% Tween-20-containing TBS), and anti-PAI-1 antibodies (Progen Biotechnik, MA-33H1F7) diluted 3,000-fold with a blocking agent (NACALAI TESQUE, INC., 03953-95) solution which had been diluted 20-fold in PBS were added thereto at 100 μL/well. […] An alkaline phosphatase substrate (Chemiluminescent AP; SurModics, APU4-0100-01) 5-fold diluted in a 0.1 mM magnesium chloride aqueous solution containing 2 mM Tris (pH 9.8) was added at 100 μL/well, and the signal value was measured using an EnVision counter (PerkinElmer Co., Ltd.).
as §2, with “of” for “of each”, “active human” for “active”, “The” for “Each of the”, “rate” for “rates”

[6] = molecular target: T4, active human PAI-1 in complex with …; assay: ELISA, VTN-PAI-1 complex on the plate
Method: An HRP-labeled goat anti-mouse Ig antibody (Southern Biotech, 1010-05) for the detection of a test antibody having an Fe region of a mouse antibody and an HRP-labeled rabbit anti-human Ig antibody (Southern Biotech, 6145-05) for the detection of a test antibody having an Fc region of a human antibody are used as the detection antibody. After incubation at room temperature for 30 minutes, the plates were washed three times with a washing solution. A color developing solution contained in a peroxidase color development kit (Sumitomo Bakelite Co., Ltd.) was added at 100 μL/well, followed by allowing to stand at room temperature for about 15 minutes, 100 μL of a reaction stop solution contained in the color development kit was added, and then the OD450 value was measured using an EnVision counter (PerkinElmer Co., Ltd.).
For each plate, the test of each antibody was carried out in duplicate, and the average value was calculated. In connection with the calculation of a PAI-1 binding rate at each concentration of each antibody, the measurement value of a well to which 0.1% BSA-containing PBS had been added instead of an antibody was taken to be 0%, and the measurement value of the maximum concentration in each antibody was set to 100%. […] The calculated PAI-1 binding rate was analyzed to calculate EC50 values of the antibodies by four-parameter logistic curve regression.

[7] = molecular target: recombinant active human PAI-1 (human, UniProt P05121 24-402); assay: cell-based or functional assay
[8] = molecular target: active monkey PAI-1 in complex with vitronectin (monkey); assay: ELISA, VTN-monkey PAI-1 complex on the plate
[9] = molecular target: T6, active PAI-1 in monkey plasma (cynomolgus monkey, UniProt G7P138 24-402); assay: ELISA: inhibition of the capture of active PAI-1 of monkey plasma on immobilised uPA (Example 9)
T6 construct: Native protein in diluted plasma
Method: as §1, §2

Sequence of active monkey PAI-1 in complex with vitronectin (monkey) (P04004 20-478, one chain of several): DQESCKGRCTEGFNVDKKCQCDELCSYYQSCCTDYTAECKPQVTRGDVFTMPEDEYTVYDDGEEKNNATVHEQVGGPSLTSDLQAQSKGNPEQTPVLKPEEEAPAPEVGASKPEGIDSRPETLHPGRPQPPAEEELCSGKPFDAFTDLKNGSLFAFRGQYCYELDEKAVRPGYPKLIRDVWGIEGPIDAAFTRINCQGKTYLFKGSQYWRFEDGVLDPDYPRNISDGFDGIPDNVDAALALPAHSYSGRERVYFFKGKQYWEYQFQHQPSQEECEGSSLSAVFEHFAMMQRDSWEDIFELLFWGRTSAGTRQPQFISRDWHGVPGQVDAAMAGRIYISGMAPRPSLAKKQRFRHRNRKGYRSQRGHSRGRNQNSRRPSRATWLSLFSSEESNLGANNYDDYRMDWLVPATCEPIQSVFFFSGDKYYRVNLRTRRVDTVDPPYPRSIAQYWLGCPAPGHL

| EC50 [1] [µg/mL] | EC50 (latent human PAI-1) [µg/mL] | EC50 [2] [µg/mL] | EC50 [3] [µg/mL] | IC50 [4] [µg/mL] | IC50 [5] [µg/mL] | EC50 [6] [µg/mL] | EC50 value, taking the activity of uPA as an indicator (cleavage of a fluorogenic uPA substrate peptide) [7] [µg/mL] | EC50 [8] [µg/mL] | IC50 [9] [µg/mL] | Binder |
| --- | --- | --- | --- | --- | --- | --- | --- | --- | --- | --- |
| 0.0228 | 0.64 | 0.0129 | 5.68 |  |  |  |  |  |  | MA-33B8 (antibody, V domains shown) VH: not shown VL: DIVMTQSPSSLAVSVGEKVTMSCKSSQSLLNIIKQKNCLAWYQQKPGQSPKLLIYWASTRESGVPDRFTGSGSGTDFTLTISSVKAEDLAVYYCQQYYSYPYTFGGGTKLEIK |
|  |  |  |  | 0.0042 | 0.006 | 0.0042 | 0.0127 | 0.0036 | 0.037 | fully human HOT-1 (antibody, human IgG1, kappa, V domains shown, Human Ig gamma1 / human kappa constant regions; also called fully human antibody of HOT-1; fully human HOT-1 antibody) VH: EVQLVESGGGVVRPGGSLRLSCAASGFTFDDHGMTWVRQAPGKGLEWVSGINWNGARTVYADSVKGRFTISRDNAKNSLYLHLISLRAEDTALYHCARDRGLGLFDYWGQGTLVTVSS VL: DIQMTQSPSTLSASVGDRVTITCRASQSISSWLAWYQQKPGKVPKILIYKASRLESGVPSRISGSGSGTEFTLTISSLQPDDFATYYCQQYNGYSYTFGQGTKLEIKR |
|  |  |  |  |  | 0.0113 |  |  |  |  | HOT-1 (chimeric antibody) (antibody, V domains shown) VH: EVQLVESGGGVVRPGGSLRLSCAASGFTFDDHGMTWVRQAPGKGLEWVSGINWNGARTVYADSVKGRFTISRDNAKNSLYLHLISLRAEDTALYHCARDRGLGLFDYWGQGTLVTVSS VL: DIQMTQSPSTLSASVGDRVTITCRASQSISSWLAWYQQKPGKVPKILIYKASRLESGVPSRISGSGSGTEFTLTISSLQPDDFATYYCQQYNGYSYTFGQGTKLEIKR |
| 0.0117 | 0.0136 | 0.0127 |  |  |  | 0.0143 |  |  |  | MA-33H1F7 (antibody, V domains shown) VH: QVQLQQSGAEVVKPGASVKLACTASGFNIKDTYIHWVKQGPEQGLEWIGRIDPANGNTKYDSKFQDKATITADTSSNTAYLHLSSLTSEDTAVYYCVRGDYDYVYFDYWGQGTTVTVSS VL: DIQMTQSPSSLSASLGDRVTISCRASQDISNFLDWYQQKPDGTVKLLIYYTSRLHSGVPSRFSGSGSGTDYSLTISKLEQEDIATYFCQQGNTFPPTFGGGTKLEIK |
